Laboratory results taken from the supplement of paper PMC7877785.
± gives the uncertainty stated by the source.

Test: self-splicing fitness, log relative to wild type (ln ratio); higher = more splicing; Tetrahymena group I intron in knt gene, E. coli kanamycin selection, DiMSum; sequences stand for … in CUCUCU…GGAGGGAAAAGUUAUCAGGCAUGCACCUGGUAGCUAGUCUUUAAACCAAUAGAUUGCAUCGGUUUAAAAGGCAAGACCGUCAAAUUGCGGGAAAGGGGUCAACAGCCGUUCAGUACCAAGUCUCAGGGGAAACUUUGAGAUGGCCUUGCAAAGGGUAUGGUAAUAAGCUGACGGACAUGGUCCUAACCACGCAGCCAAGUCCUAAGUCAACAGAUCUUCUGUUGAUAUGGAUGCAGUUCACAGACUAAAUGUCGGUCGGGGAAGAUGUAUUCUUCUCAUAAGAUAUAGUCGGACCUCUCCUUAAUGGGAGCUAGCGGAUGAAGUGAUGCAACACUGGAGCCGCUGGGAACUAAUUUGUAUGCGAAAGUAUAUUGAUUAGUUUUGGAGUACUCGUGGUCG
Method in brief: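 Pooled colonies went to amplicon sequencing on an Illumina HiSeq 2500 after six replicate transformations. The plates were LB agar with 100 μg/mL carbenicillin, 50 μM IPTG and 0.2% rhamnose, with or without 25 μg/mL kanamycin, incubated overnight at 37°C or 30°C. The E. coli BL21(DE3) library had all eight P1ex-region intron nucleotides randomised, the intron placed in the knt kanamycin-resistance gene on pET-22b(+). DiMSum fitness is the error-weighted combination of replicate fold changes, kanamycin against none, normalised to wild type.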

Row | Sequence | self-splicing fitness (ln) (30 °C) | self-splicing fitness (ln) (37 °C)
1 | UCAAAGCAAUAUUACGGCAG | -1.24 ± 0.12 | 0.177 ± 0.16
2 | CAGUAGCAAUAUUACGGAUU | -2.84 ± 0.17 | -3.21 ± 0.27
3 | CCGCAGCAAUAUUACGCGAG | -3.17 ± 0.12 | -2.2 ± 0.16
4 | CCAGAGCAAUAUUACGUGCA | -1.88 ± 0.22 | -2.54 ± 0.4
5 | GCCGAGCAAUAUUACGAGCG | 0.333 ± 0.15 | -0.618 ± 0.19
6 | ACAAAGCAAUAUUACGCUUG | -1.62 ± 0.057 | -0.984 ± 0.079
7 | AUGCAGCAAUAUUACGGCUC | -0.408 ± 0.1 | -0.0582 ± 0.13
8 | UUCAAGCAAUAUUACGCUGC | -2.71 ± 0.3 | -1.92 ± 0.23
9 | UUGAAGCAAUAUUACGGUAA | -0.968 ± 0.1 | -0.399 ± 0.12
10 | AACAAGCAAUAUUACGGGUC | -1.68 ± 0.14 | -1.65 ± 0.17
11 | CGGCAGCAAUAUUACGUCGC |  | -0.603 ± 0.28
12 | AGAUAGCAAUAUUACGCUCC |  | 0.0911 ± 0.49
13 | UACGAGCAAUAUUACGGGUG | -1.88 ± 0.074 | -0.725 ± 0.087
14 | GAUAAGCAAUAUUACGGCGA | -0.337 ± 0.12 | 0.114 ± 0.13
15 | UCUAAGCAAUAUUACGGACU | -3.51 ± 0.28 | -2.84 ± 0.27
16 | CAUGAGCAAUAUUACGUAGA | -4.22 ± 0.27 | -2.77 ± 0.21
17 | UUCCAGCAAUAUUACGAUCA | -1.26 ± 0.2 | -1.27 ± 0.2
18 | CGCGAGCAAUAUUACGCGAG | -3.97 ± 0.37 | -2.01 ± 0.41
19 | UCCAAGCAAUAUUACGCUUC | -3.36 ± 0.15 | -4.24 ± 0.2
20 | GAUGAGCAAUAUUACGUCUC | -2.96 ± 0.23 | -1.5 ± 0.41

Row | Sequence | self-splicing fitness (ln) (30 °C) | self-splicing fitness (ln) (37 °C)
21 | AUGCAGCAAUAUUACGCGGG | -2.94 ± 0.17 | -2.49 ± 0.17
22 | UUGCAGCAAUAUUACGUUGU | -3.23 ± 0.2 | -2.81 ± 0.2
23 | UCGGAGCAAUAUUACGUCGG | -1.7 ± 0.24 | -2.04 ± 0.28
24 | CCGGAGCAAUAUUACGCCUU | -2.67 ± 0.36 | -3.35 ± 0.47
25 | CUCGAGCAAUAUUACGGUCU | -3.02 ± 0.15 | -2.11 ± 0.17
26 | GUUAAGCAAUAUUACGGGCC |  | -2.12 ± 0.37
27 | UCCCAGCAAUAUUACGGCUA | -1.31 ± 0.12 | -1.19 ± 0.12
28 | CAUAAGCAAUAUUACGUCAU | -3.67 ± 0.19 | -2.19 ± 0.19
29 | GGUCAGCAAUAUUACGCAUC | -0.704 ± 0.091 | -0.125 ± 0.1
30 | GCGAAGCAAUAUUACGUUCU | -1.93 ± 0.11 | -0.859 ± 0.11
31 | CAGUAGCAAUAUUACGUCGG | -0.645 ± 0.078 | -0.0434 ± 0.1
32 | AUGGAGCAAUAUUACGAGUU | -4.04 ± 0.43 | -3.03 ± 0.22
33 | UUAUAGCAAUAUUACGAUAC |  | -1.53 ± 0.27
34 | CUUUAGCAAUAUUACGAUCU | -3.2 ± 0.36 | -2.48 ± 0.45
35 | AUGGAGCAAUAUUACGACGG |  | 1.8 ± 0.38
36 | GCCGAGCAAUAUUACGCUAC | -3.91 ± 0.31 | -4.08 ± 0.47
37 | CUUAAGCAAUAUUACGUCGU | -4.59 ± 0.46 | -2.22 ± 0.29
38 | UUUUAGCAAUAUUACGACGG | -0.13 ± 0.14 | -0.173 ± 0.18
39 | GGGCAGCAAUAUUACGUGCA | -1.62 ± 0.079 | 0.116 ± 0.098
